Data as given in paper PMC4454178 (Molecular Biology of the Cell, 2015).

What was measured:
[1] = target: MBP-PDZ (PDZ domain of PICK1 fused to MBP) (human, UniProt Q9NRD5 22-105); assay: ITC
SAXS = target: the molecule itself; assay: SAXS

Kd [1] | Binder | stoichiometry N (SAXS)
~1900 nM | RHWLKV [DAT C-terminal tail peptide (6 aa)] | 
 | MBP-PICK1 fusion protein (natural protein, human, UniProt Q9NRD5 1-415, looked up) MFADLDYDIEEDKLGIPTVPGKVTLQKDAQNLIGISIGGGAQYCPCLYIVQVFDNTPAALDGTVAAGDEITGVNGRSIKGKTKVEVAKMIQEVKGEVTIHYNKLQADPKQGMSLDIVLKKVKHRLVENMSSGTADALGLSRAILCNDGLVKRLEELERTAELYKGMTEHTKNLLRAFYELSQTHRAFGDVFSVIGVREPQPAASEAFVKFADAHRSIEKFGIRLLKTIKPMLTDLNTYLNKAIPDTRLTIKKYLDVKFEYLSYCLKVKEMDDEEYSCIALGEPLYRVSTGNYEYRLILRCRQEARARFSQMRKDVLEKMELLDQKHVQDIVFQLQRLVSTMSKYYNDCYAVLRDADVFPIEVDLAHTTLAYGLNQEEFTDGEEEEEEEDTAAGEPSRDTRGAAGPLDKGGSWCDS | 2
